What all share (assay): native MS
Test [1] has as its target Phycocyanin α6β6γ complex.
Test [2] has as its target R-phycoerythrin α6β6γ complex.
Test [3] concerns the target Phycocyanin α6β6 complex.
Test [4] has as its target Phycocyanin αβ-heterodimer.
The target of test [5] is Phycocyanin αβ-heterodimer. This is another data set of the same source.

Values joined by “and” are separate entries in the source; they are usually repeats but may differ in a detail not shown here. Equal values may be shown once. Read-outs that look alike come from different tables or passages of the source.

As usually defined, the stoichiometry N is a count of units in the complex or per binding partner.

As for Phycocyanin α6β6γ complex, the stoichiometry N in test [1] was found to be 2.

Regarding R-phycoerythrin α6β6γ complex, in test [2], the stoichiometry N was found to be 2.

As to Phycocyanin α6β6 complex, the stoichiometry N in test [3] was determined as 2.

On to Phycocyanin αβ-heterodimer (complex), for which the stoichiometry N in test [4] is 3 and 6; in test [5], 6.

Source of the values: article PMC6511732.
